For data set [1], the system named is CTCF WT (human). The experiment in a line: single-molecule DNA curtains lifetime. The conditions noted are these: DNA curtains: CTCF 10 nM (ZF9-CT 50 nM, ZF4-7 200 nM) or SA 100 nM, load at 50 mM NaCl, wash at 300 mM NaCl, buffer, pH and temperature not given in material; for binding signal (min (lifetime)): 300 mM NaCl wash, photobleaching corrected.
Data set [2] concerns CTCF WT (human). The experiment in a line: single-molecule DNA curtains (TIRF). Particulars: 300 mM NaCl wash; DNA curtains: CTCF 10 nM (ZF9-CT 50 nM, ZF4-7 200 nM) or SA 100 nM; load at 50 mM NaCl, wash at 300 mM NaCl; buffer, pH and temperature not given in material.
Data set [3] relates to T1, CTCF ZF4-7 del1-350;del461-727 (human).
T1 sequence: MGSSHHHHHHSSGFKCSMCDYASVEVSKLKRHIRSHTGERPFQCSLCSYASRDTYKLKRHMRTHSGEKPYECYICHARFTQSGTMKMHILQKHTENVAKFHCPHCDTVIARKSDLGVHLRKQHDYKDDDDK
The experiment in a line: single-molecule DNA curtains lifetime. Particulars: not enriched on CBSs; DNA curtains: CTCF 10 nM (ZF9-CT 50 nM, ZF4-7 200 nM) or SA 100 nM; load at 50 mM NaCl, wash at 300 mM NaCl; buffer, pH and temperature not given in material.

In data set [4] the test system is CTCF ΔRBR (ΔRBR+ΔZF1,10,11) (human). The experiment in a line: single-molecule DNA curtains lifetime. Particulars: 300 mM NaCl wash; CBS enrichment similar to WT; DNA curtains: CTCF 10 nM (ZF9-CT 50 nM, ZF4-7 200 nM) or SA 100 nM; load at 50 mM NaCl, wash at 300 mM NaCl; buffer, pH and temperature not given in material.
Data set [5] has as its system T2, CTCF ZF9-CT (human).
T2 sequence: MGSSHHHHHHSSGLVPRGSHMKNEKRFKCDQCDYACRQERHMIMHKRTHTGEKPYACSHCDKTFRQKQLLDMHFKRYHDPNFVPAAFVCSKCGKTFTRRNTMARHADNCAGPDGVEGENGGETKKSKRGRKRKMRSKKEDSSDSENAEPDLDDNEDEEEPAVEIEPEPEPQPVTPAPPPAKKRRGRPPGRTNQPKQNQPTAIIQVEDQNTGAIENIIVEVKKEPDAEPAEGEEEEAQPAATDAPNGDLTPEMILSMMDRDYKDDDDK
The experiment in a line: single-molecule DNA curtains lifetime. The conditions noted are these: not enriched on CBSs (negative enrichment); prefers AT-rich DNA; DNA curtains: CTCF 10 nM (ZF9-CT 50 nM, ZF4-7 200 nM) or SA 100 nM; load at 50 mM NaCl, wash at 300 mM NaCl; buffer, pH and temperature not given in material.

For data set [6], the system named is CTCF WT;SA1 (human;human?). The experiment in a line: single-molecule DNA curtains (TIRF). The conditions noted are these: preincubated 10 nM CTCF, 100 nM SA1; 300 mM NaCl wash; DNA curtains: CTCF 10 nM (ZF9-CT 50 nM, ZF4-7 200 nM) or SA 100 nM; load at 50 mM NaCl, wash at 300 mM NaCl; buffer, pH and temperature not given in material.
In data set [7] the test system is CTCF WT;SA2 (human;human?). The experiment in a line: single-molecule DNA curtains (TIRF). The conditions noted are these: preincubated 10 nM CTCF, 100 nM SA2; 300 mM NaCl wash; DNA curtains: CTCF 10 nM (ZF9-CT 50 nM, ZF4-7 200 nM) or SA 100 nM; load at 50 mM NaCl, wash at 300 mM NaCl; buffer, pH and temperature not given in material.
Data set [8] deals with CTCF WT (human CCCTC-binding factor, full-length) (human) (UniProt P49711). The experiment in a line: single-molecule photobleaching step counting on DNA curtains; labeled CTCF on λ-DNA at 50 mM NaCl without prior removal of unspecifically bound CTCF, 25 ng/μl 100 bp Cy3-RNA added; bleaching steps counted at positions of captured RNA; both lasers at 140 mW.
In data set [9] the target is CTCF ΔNC (truncation mutant missing both CTCF termini, containing all 11 ZFs) (human). The data set is described as above.
Data set [10] addresses T3, CTCF WT (human CCCTC-binding factor, full-length) (human, UniProt P49711 1-727, fluorescent dye (AF568, Atto 643 or Alexa Fluor 660) on the Halo-tag through a chloroalkane linker; unlabeled in the SA transcription experiments).
T3 construct: 11 zinc fingers and two unstructured termini; also called AF-568-CTCF-WT; AF568-CTCF; source: High Five (Hi5) insect cells, purified (Ni-NTA, heparin, Superose 6); not shown: Halo, N-terminal, kept
T3 sequence (looked up): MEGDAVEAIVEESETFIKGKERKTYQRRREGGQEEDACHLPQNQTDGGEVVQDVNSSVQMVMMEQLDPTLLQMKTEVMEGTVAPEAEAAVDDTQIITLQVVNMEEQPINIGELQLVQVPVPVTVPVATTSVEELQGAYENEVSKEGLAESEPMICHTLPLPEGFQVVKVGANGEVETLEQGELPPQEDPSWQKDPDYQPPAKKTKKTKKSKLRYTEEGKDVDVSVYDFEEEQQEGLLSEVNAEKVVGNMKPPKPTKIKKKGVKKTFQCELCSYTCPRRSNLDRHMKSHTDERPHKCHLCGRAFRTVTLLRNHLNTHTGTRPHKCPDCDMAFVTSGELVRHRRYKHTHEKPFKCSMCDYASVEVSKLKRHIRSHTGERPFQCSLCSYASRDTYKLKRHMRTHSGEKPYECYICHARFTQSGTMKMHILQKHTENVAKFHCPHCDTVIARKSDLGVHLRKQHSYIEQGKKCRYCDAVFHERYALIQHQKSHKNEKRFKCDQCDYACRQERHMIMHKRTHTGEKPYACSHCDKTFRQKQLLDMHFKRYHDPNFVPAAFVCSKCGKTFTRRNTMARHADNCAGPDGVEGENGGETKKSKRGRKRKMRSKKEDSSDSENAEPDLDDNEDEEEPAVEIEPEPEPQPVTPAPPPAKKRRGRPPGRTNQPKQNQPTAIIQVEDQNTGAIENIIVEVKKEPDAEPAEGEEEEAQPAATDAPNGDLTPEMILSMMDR
The experiment in a line: single-molecule DNA curtains (TIRF microscopy), combined loading; 100 or 400 nM SA-LD655 preincubated with 10 nM CTCF in CTCF 100 buffer (40 mM Tris pH 7.5, 100 mM NaCl, 1 mM MgCl2, 1 mg/ml BSA, 1 mM DTT) 5 min at RT; 30 s on λ-DNA with 4× CBSs in 50 mM NaCl, then 3 min (lifetimes: up to 15 min) in 300 mM NaCl; SA read at CBS-bound CTCF (enrichment, lifetime). Particulars: both partners purified.

Experimental findings from PMC11194110, “Single-molecule imaging reveals a direct role of CTCF’s zinc fingers in SA interaction and cluster-dependent RNA recruitment” (Nucleic Acids Research, 2024) are described below.

Some results are limits rather than exact numbers.

In data set [1], 1xT7-1xCBS λ-DNA gave a binding signal (min (lifetime)) of 50. The molecule also returned a binding signal (fold enrichment on CBS) in [2] of 7.

The molecule 2xT7-4xCBSs λ-DNA registered a binding signal (min (lifetime)) in [1] of 50. Also, the values for the binding signal (fold reduced lifetime vs WT) in data set [3], in data set [4] and in [5] were 90, 2.5 and 25, respectively. Moreover, the binding signal (fold enrichment on CBS) in data set [2] stood at 16. Further, the binding signal (fold SA1 enrichment on CBS) in data set [6] was 10. This molecule also returned a binding signal (fold SA2 enrichment on CBS) in data set [7] of 8.

In the case of “CTCF WT (human CCCTC-binding factor, full-length) (from UniProt P49711 1-727) (natural protein)”, in data set [8], the photobleaching steps in CTCF-RNA clusters was 8.8 steps and the stoichiometry N (CTCF molecules) was determined as 17.

Molecule “CTCF ΔNC (truncation mutant missing both CTCF termini, containing all 11 ZFs) (domain or fragment)” gave a photobleaching steps in clusters on DNA (bleaching steps) in [9] of 9.

In turn, λ-DNA (non-CBS) yielded a binding signal (fold lower lifetime than on CBS) in data set [1] (coats DNA at 50 mM NaCl, mostly washed off at 300 mM) greater than 40.

B1: Cohesin subunit SA1 (natural protein, UniProt Q8WVM7 1-1258, looked up)
chain: MITSELPVLQDSTNETTAHSDAGSELEETEVKGKRKRGRPGRPPSTNKKPRKSPGEKSRIEAGIRGAGRGRANGHPQQNGEGEPVTLFEVVKLGKSAMQSVVDDWIESYKQDRDIALLDLINFFIQCSGCRGTVRIEMFRNMQNAEIIRKMTEEFDEDSGDYPLTMPGPQWKKFRSNFCEFIGVLIRQCQYSIIYDEYMMDTVISLLTGLSDSQVRAFRHTSTLAAMKLMTALVNVALNLSIHQDNTQRQYEAERNKMIGKRANERLELLLQKRKELQENQDEIENMMNSIFKGIFVHRYRDAIAEIRAICIEEIGVWMKMYSDAFLNDSYLKYVGWTLHDRQGEVRLKCLKALQSLYTNRELFPKLELFTNRFKDRIVSMTLDKEYDVAVEAIRLVTLILHGSEEALSNEDCENVYHLVYSAHRPVAVAAGEFLHKKLFSRHDPQAEEALAKRRGRNSPNGNLIRMLVLFFLESELHEHAAYLVDSLWESSQELLKDWECMTELLLEEPVQGEEAMSDRQESALIELMVCTIRQAAEAHPPVGRGTGKRVLTAKERKTQIDDRNKLTEHFIITLPMLLSKYSADAEKVANLLQIPQYFDLEIYSTGRMEKHLDALLKQIKFVVEKHVESDVLEACSKTYSILCSEEYTIQNRVDIARSQLIDEFVDRFNHSVEDLLQEGEEADDDDIYNVLSTLKRLTSFHNAHDLTKWDLFGNCYRLLKTGIEHGAMPEQIVVQALQCSHYSILWQLVKITDGSPSKEDLLVLRKTVKSFLAVCQQCLSNVNTPVKEQAFMLLCDLLMIFSHQLMTGGREGLQPLVFNPDTGLQSELLSFVMDHVFIDQDEENQSMEGDEEDEANKIEALHKRRNLLAAFSKLIIYDIVDMHAAADIFKHYMKYYNDYGDIIKETLSKTRQIDKIQCAKTLILSLQQLFNELVQEQGPNLDRTSAHVSGIKELARRFALTFGLDQIKTREAVATLHKDGIEFAFKYQNQKGQEYPPPNLAFLEVLSEFSSKLLRQDKKTVHSYLEKFLTEQMMERREDVWLPLISYRNSLVTGGEDDRMSVNSGSSSSKTSSVRNKKGRPPLHKKRVEDESLDNTWLNRTDTMIQTPGPLPAPQLTSTVLRENSRPMGDQIQEPESEHGSEPDFLHNPQMQISWLGQPKLEDLNRKDRTGMNYMKVRTGVRHAVRGLMEEDAEPIFEDVMMSSRSQLEDMNEEFEDTMVIDLPPSRNRRERAELRPDFFDSAAIIEDDSGFGMPMF
modifications: LD655-CoA dye on the ybbR-tag (Sfp labeling)
notes: cohesin subunit SA1; also called SA-LD655; source: High Five (Hi5) insect cells, purified (Ni-NTA, heparin, Superose 6); not shown: ybbR, C-terminal, kept
Turning to B1, in data set [10], the “fold enrichment on the CBSs with CTCF” value amounted to 10 fold.

B2: Cohesin subunit SA2 (natural protein, UniProt Q8N3U4 1-1231, looked up)
chain: MIAAPEIPTDFNLLQESETHFSSDTDFEDIEGKNQKQGKGKTCKKGKKGPAEKGKGGNGGGKPPSGPNRMNGHHQQNGVENMMLFEVVKMGKSAMQSVVDDWIESYKHDRDIALLDLINFFIQCSGCKGVVTAEMFRHMQNSEIIRKMTEEFDEDSGDYPLTMAGPQWKKFKSSFCEFIGVLVRQCQYSIIYDEYMMDTVISLLTGLSDSQVRAFRHTSTLAAMKLMTALVNVALNLSINMDNTQRQYEAERNKMIGKRANERLELLLQKRKELQENQDEIENMMNAIFKGVFVHRYRDAIAEIRAICIEEIGIWMKMYSDAFLNDSYLKYVGWTMHDKQGEVRLKCLTALQGLYYNKELNSKLELFTSRFKDRIVSMTLDKEYDVAVQAIKLLTLVLQSSEEVLTAEDCENVYHLVYSAHRPVAVAAGEFLYKKLFSRRDPEEDGMMKRRGRQGPNANLVKTLVFFFLESELHEHAAYLVDSMWDCATELLKDWECMNSLLLEEPLSGEEALTDRQESALIEIMLCTIRQAAECHPPVGRGTGKRVLTAKEKKTQLDDRTKITELFAVALPQLLAKYSVDAEKVTNLLQLPQYFDLEIYTTGRLEKHLDALLRQIRNIVEKHTDTDVLEACSKTYHALCNEEFTIFNRVDISRSQLIDELADKFNRLLEDFLQEGEEPDEDDAYQVLSTLKRITAFHNAHDLSKWDLFACNYKLLKTGIENGDMPEQIVIHALQCTHYVILWQLAKITESSSTKEDLLRLKKQMRVFCQICQHYLTNVNTTVKEQAFTILCDILMIFSHQIMSGGRDMLEPLVYTPDSSLQSELLSFILDHVFIEQDDDNNSADGQQEDEASKIEALHKRRNLLAAFCKLIVYTVVEMNTAADIFKQYMKYYNDYGDIIKETMSKTRQIDKIQCAKTLILSLQQLFNEMIQENGYNFDRSSSTFSGIKELARRFALTFGLDQLKTREAIAMLHKDGIEFAFKEPNPQGESHPPLNLAFLDILSEFSSKLLRQDKRTVYVYLEKFMTFQMSLRREDVWLPLMSYRNSLLAGGDDDTMSVISGISSRGSTVRSKKSKPSTGKRKVVEGMQLSLTEESSSSDSMWLSREQTLHTPVMMQTPQLTSTIMREPKRLRPEDSFMSVYPMQTEHHQTPLDYNRRGTSLMEDDEEPIVEDVMMSSEGRIEDLNEGMDFDTMDIDLPPSKNRRERTELKPDFFDPASIMDESVLGVSMF
modifications: LD655-CoA dye on the ybbR-tag (Sfp labeling)
notes: cohesin subunit SA2; also called SA-LD655; source: High Five (Hi5) insect cells, purified (Ni-NTA, heparin, Superose 6); not shown: ybbR, C-terminal, kept
As to B2, the “fold enrichment on the CBSs with CTCF” value in data set [10] was found to be 8 fold.
